Assay results from a protein production outcome set (Wang et al. 2014).

Assay: label from the status in PepcDB records

Sequence | protein production
TLDLPMQMAAERALADVPQQAAIVALRPSTGEVLAVAQNAPADALGPIALTGLYPPGSTFKTVTTSAALQAGAATPDTVLPCPGTENIEGRQIPNDDEFDLGAVPLHTAFARSCNTTMGRLAVGLPPDALQQAALQFGLGVDYVTPGLTTVTGNVPVADSPAARVESGIGQGQVTATPFGMAMVAASIANGSTPSPMIVQGQPGTADKTAPTVPANVTSDLRTMMRETVTGGTATALQDIPGLLGKTGTAESGNGPAHGWFVGIKDDLAFAVFIATGDSSAPAVQAAGRFLR | failed
MPERRTVALVTLGCARNEVDSEELAGRLEADGWQLVEDAEDADVAVVNTCGFVEAAKKDSVDALLEANDLKGHGRTQAVVAVGCMAERYGKELAEALPEADGVLGFDDYTNISDRLQTILNGGIHAAHTPRDRRKLLPISPAERQSAGADVALPGHGAPEGLPEDLPEGLAPESGPRAPLRRRLDGSPVASVKLASGCDRRCSFCAIPSFRGSFISRRPSDVLGETRWLAEQGVKEVMLVSENNTSYGKDLGDIRLLETLLPELAEVDGIERVRVSYLQPAEMRPGLIDVLTSTPKIAPYFDLSFQHSAPDVLRAMRRFGDTDRFLELLDTIRSKAPQAGVRSNFIVGFPGETEADLAELERFLTGARLDAIGVFGYSDEEGTEAATYGHKLDEDVVAARLARVSRLAEELVAQRAEERVGETVHVLVESIDDEEGAVGRAEHQAPETDGQVLFTSGEGLTVGRMVEAKVVGTEGVDLVAEPLPGSLVCTEEAGR | failed
MTIKEFIKKSRLKTWDVIIIAILVLGSFLPLVVFAMQNRGQEAATYQAVLKVDNKVIKVFDLKKDGPHYTYKYEAKDGDYNLIEVDGDRIRVKEANCADLVDVRRGWISKPGETPIACLPHNLFITVEASDGSEDGSLIY | failed
PFKESQARGLLQDNMANGYNGEDFESGLLELSKEIFPTNKYLYQDGQYLDKKTINAYLDPKYTKKEIDKMSEKEKKSKNANENLGLNPSHNGETDEEKIAKNSPAYLSNILEQDFYGNSDSKGKNIKGMTIGLAMNSVYYYKKEKDGETFSKDLSDKEIEKQGKQMASEMLSRLRENSDLKDIPIHFAIYKQSSQDSITPGEFIVGTTVEEGKTKINSWDNINEKAALIPSSTAADYDETLNNNFKQFNDNLQSYFSNFTQAVGKVKFVNKKAKQLTVDLPIDYYGQAETIGITQYVTEQAEKYFDKLDEYEIRIKDGNTPRALISKTKDDKEPQVHIYHN | not failed
LVTISSTSAASLPTMPPSGYDQVRNGVPRGQVVNISYFSTATNSTRPARVYLPPGYSKDKKYSVLYLLHGIGGSENDWFEGGGRANVIADNLIAEGKIKPLIIVTPNTNAAGPGIADGYENFTKDLLNSLIPYIESNYSVYTDREHRAIAGLSMGGGQSFNIGLTNLDKFAYIGPISAAPNTYPNERLFPDGGKAAREKLKLLFIACGTNDSLIGFGQRVHEYCVANNINHVYWLIQGGGHDFNVWKPGLWNFLQMADEAGLTRDGNT | not failed
MDWIESVKSYIKVVEEGSFNAAAYQLNTSGSAISKRINWLEERVGVQLLTRTTRSVHQTEAGLLFYQRARLQLDQWQHLVDETRAINQTPAGLLKIGATLAVGSKFIIKYLDEFLATYPKIKVQLITTLPGQVPEHNVDVFISRELEQLNTFSYKATHLFEHHSGFFASKDYLDKYGTPNNINELKAHNMLIWGERPIKEIKLTNNKRVTLRGNFATTNPEALFHAAKRGMGILLTSQQMVIDDLQSGALVPILPEITTDHTRVNAYYPTLDYEHTRTQLFIKYLKTKLS | failed
MNDLLSSYLPVLIFIVVSAVIAGGLLVIPYIVAYRSPDPEKLSAYECGFNSFNDARMKFDIRFYLVSILFIIFDLEVAFLFPWAVSFGSIGMFGFWSMIIFLALLTVGFIYEWKKGALEWD | failed
MIKFYQYKNCTTCKKAAKFLDEYGVSYEPIDIVQHTPTINEFKTIIANTGVEINKLFNTHGAKYRELDLKNKLQTLSDDEKLELLSSDGMLVKRPLAVMGDKITLGFKEDQYKETW | not failed
MASYYEILDVPRSASADDIKKAYRRKALQWHPDKNPDNKEFAEKKFKEVAEAYEVLSDKHKREIYDRYGREGLTGTGTGPSRAEAGSGGPGFTFTFRSPEEVFREFFGSGDPFAELFDDLGPFSELQNRGSRHSGPFFTFSSSFPGHSDFSSSSFSFSPGAGAFRSVSTSTTFVQGRRITTRRIMENGQERVEVEEDGQLKSVTINGVPDDLALGLELSRREQQPSVTSRSGGTQVQQTPASCPLDSDLSEDEDLQLAMAYSLSEMEAAGKKPAGGREAQHRRQGRPKAQHQDPGLGGTQEGARGEATKRSPSPEEKASRCLIL | not failed
